Laboratory results: patent US20030199071A1 (published 2003)

Molecular target: FimH Q133A (E. coli, UniProt P08191 22-300)
Assay: co-expression with FimC in E. coli; data not shown

B1: FimC (wild type periplasmic chaperone of E. coli type 1 pili) (other)
chain: GVALGATRVIYPAGQKQVQLAVTNNDENSTYLIQSWVENADGVKDGRFIVTPPLFAMKGKKENTLRILDATNNQLPQDRESLFWMNVKAIPSMDKSKLTENTLQLAIISRIKLYYRPAKLALPPDQAAEKLRFRRSANSLTLINPTPYYLTVTELNAGTRVLENALVPPMGESTVKLPSDAGSNITYRTINDYGALTPKMTGVME
notes: also called FimC alone; wild type FimC
binding result: binds
